Laboratory results reported in patent US20250051467A1 (JIANGSU HENGRUI PHARMACEUTICALS, published 2025).
Where a chain is given by its changes, count along the chain named.

Tests used:
[1] = molecular target: human CD40 on cells (Raji cells; HEK-Blue CD40L cells; human dendritic cells) (human, UniProt P25942 21-277); assay: cell-based or functional assay
[2] = molecular target: T1, human CD40 with C-terminal Flag tag on HEK293 cells (human, UniProt P25942 21-277); assay: FACS, HEK293 cells transiently expressing human CD40
T1 construct: whole, on cells; also called HEK293 cells highly expressing CD40; cell strain highly expressing human CD40
T1 sequence (P25942 other isoform, or with tags, fused parts or gaps): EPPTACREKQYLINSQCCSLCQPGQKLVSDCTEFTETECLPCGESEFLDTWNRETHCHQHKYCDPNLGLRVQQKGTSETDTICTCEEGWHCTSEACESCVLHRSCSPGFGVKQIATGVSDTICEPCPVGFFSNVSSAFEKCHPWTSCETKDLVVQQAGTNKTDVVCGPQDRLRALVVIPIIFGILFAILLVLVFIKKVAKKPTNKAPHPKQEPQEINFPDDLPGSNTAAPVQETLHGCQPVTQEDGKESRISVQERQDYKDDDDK
Procedure: The ability of the humanized antibodies to bind to cells highly expressing the human antigen protein CD40 was measured by FACS. HEK293 cells were transiently transfected with CD40 plasmids (CD40 cDNA ORF Clone, Human, C-[…] (Flag®) Tag; Sino Biological; HG10774-CF), yielding HEK293 cells highly expressing CD40. The resulting cells were resuspended in the flow cytometry staining buffer ([…]), and the test antibodies that had been serially diluted to different concentrations were added. After 1 h of incubation on ice, the cells were washed with PBS and centrifuged at 400 g for 5 min. A goat anti-human Fc antibody labeled with the fluorescent group Alexa Fluor 647 was added as a secondary antibody, and the cells were stained in an ice bath for 1 h. After two washes with PBS, the fluorescent signals on the cell surface were detected by FACS. The humanized antibodies of the present disclosure all have relatively high affinities for the cell strain highly expressing CD40.

[3] = molecular target: T2, human FAP on CHO cells (human, UniProt Q12884 1-760); assay: FACS, CHO cells overexpressing human FAP
T2 construct: whole, on cells; also called CHO cell line overexpressing human FAP; CHOK1/FAP
Procedure: (§1) A FACS assay was used to measure the binding properties of anti-FAP antibodies on cells. The assay comprises the following steps: A CHO cell line overexpressing human FAP was constructed and plated (1E5/well). The test antibodies were added at 100 μL/well. The highest concentration was 100 nM. A 5-fold dilution was performed, yielding 8 concentrations in total. The plate was incubated at 4° C. for 1 h. Anti-hIgG Alexa Fluor-647 was added as a secondary antibody in the ratio of 1:500. The plate was incubated at 4° C. for 30 min, and a FACS assay was performed. Antibodies that bind to FAP can mark cells. The relation between the percentage of the marked cells that over-express human FAP among all cells and the antibody concentration is shown in FIG. 1. The relation between the percentage of the marked cells that over-express mouse FAP among all cells and the antibody concentration is shown in FIG. 2.

[4] = molecular target: T3, h-FAP-His (human, UniProt Q12884 26-760); assay: SPR, antibody captured by anti-human IgG Fc, h-FAP-His analyte
T3 construct: range 26-760; Bought recombinant protein with a His tag; also called human FAP-His protein; FAP recombinant protein with a His tag
Procedure: A CM5 sensor chip was used, and HBS-EP+buffer solution (10 mM HEPES, 150 mM NaCl, 3 mM EDTA, 0.05% surfactant P20) was used as the mobile phase. An anti-human IgG (Fc) antibody was made into a […] solution in a 10 mM sodium acetate buffer solution (pH 5.0) and immobilized by amino coupling. The test antibodies were diluted in HBS-EP+buffer solution and captured by the anti-human IgG (Fc) antibody on chip channels. h-FAP-His was dissolved in HBS-EP+buffer solution to prepare an analyte, and the analyte was serially diluted 2-fold. The diluted antibodies were passed through the experimental and reference channels at a flow rate of […], with 1 min of binding and 15 min of disassociation. 10 mM Glycine pH 1.5 was passed as a regeneration buffer solution for 30 s at a flow rate of […]. Data were analyzed. […] However, the binding affinities of the other anti-FAP antibodies obtained by screening at the same time in the present disclosure, such as Ab2, Ab4 and Ab5 (sequences not shown), for the antigen are lower than that of 28H1.

[5] = molecular target: T4, mouse FAP on CHOK1 cells (mouse, UniProt P97321 1-761); assay: FACS, percent of marked cells overexpressing mouse FAP, anti-hIgG Alexa Fluor-647 secondary antibody
T4 construct: whole, on cells; also called cell surface mouse FAP
T4 sequence (P97321 whole entry): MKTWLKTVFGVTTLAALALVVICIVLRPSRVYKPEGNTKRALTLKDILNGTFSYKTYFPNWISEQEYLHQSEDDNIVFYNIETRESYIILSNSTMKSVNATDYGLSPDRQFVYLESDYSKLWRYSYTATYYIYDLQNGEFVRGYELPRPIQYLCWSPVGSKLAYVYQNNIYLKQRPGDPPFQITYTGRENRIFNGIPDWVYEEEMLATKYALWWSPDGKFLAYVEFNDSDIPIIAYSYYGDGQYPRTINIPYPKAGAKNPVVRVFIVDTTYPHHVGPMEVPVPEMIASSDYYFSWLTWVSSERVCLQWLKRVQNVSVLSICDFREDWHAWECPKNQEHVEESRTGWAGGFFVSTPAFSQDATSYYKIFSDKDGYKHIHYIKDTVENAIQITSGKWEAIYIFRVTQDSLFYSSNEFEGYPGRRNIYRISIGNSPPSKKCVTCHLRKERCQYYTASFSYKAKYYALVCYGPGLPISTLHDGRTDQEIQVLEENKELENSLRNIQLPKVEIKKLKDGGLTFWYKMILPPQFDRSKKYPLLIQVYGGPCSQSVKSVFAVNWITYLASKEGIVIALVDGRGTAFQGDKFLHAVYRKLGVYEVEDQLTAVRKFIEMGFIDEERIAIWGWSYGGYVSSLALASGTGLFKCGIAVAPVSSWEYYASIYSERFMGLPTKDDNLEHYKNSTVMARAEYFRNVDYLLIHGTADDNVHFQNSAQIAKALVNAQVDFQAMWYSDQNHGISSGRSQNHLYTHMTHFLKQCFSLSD
Procedure: as §1

Sequence of human CD40 on cells (Raji cells; HEK-Blue CD40L cells; human dendritic cells) (P25942 21-277): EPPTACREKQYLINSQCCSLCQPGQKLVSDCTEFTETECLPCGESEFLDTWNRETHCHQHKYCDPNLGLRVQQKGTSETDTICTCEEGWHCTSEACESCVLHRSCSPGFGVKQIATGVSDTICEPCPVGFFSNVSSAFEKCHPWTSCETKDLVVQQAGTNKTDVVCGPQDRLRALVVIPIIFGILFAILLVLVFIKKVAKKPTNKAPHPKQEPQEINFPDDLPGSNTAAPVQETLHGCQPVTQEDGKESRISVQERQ

B1: A12V1-Fc (Fc fusion)
chain: EVQLVESGGGLVQPGGSLRLSCAASGFTFSNYGMKWVRQAPGKGLEWVSTILSQGGSTYYADSVKGRFTISRDNAKNSLYLQMNSLRAEDTALYYCARVDWSDYSPRGQGTMVTVSSEPKSADKTHTCPPCPAPELLGGPSVFLFPPKPKDTLMISRTPEVTCVVVDVEHEDPEVKFNWYVDGVEVHNAKTKPREEQYNSTYRVVSVLTVLHQDWLNGKEYKCKVSSKAFPAPIEKTISKAKGQPREPQVYTLPPSRDELTKNQVSLTCLVKGFYPSDIAVEWESNGQPENNYKTTPPVLDSDGSFFLYSKLTVDKSRWQQGNVFSCSVMHEALHNHYTQKSLSLSPGK
FcγRIIb-mediated activation of HEK-Blue CD40L cells, EC50 [1]: 0.009 nM
FcγRIIb-mediated activation of HEK-Blue CD40L cells, Emax (relative fluorescence intensity) [1]: 21.6 relative fluorescence intensity
EC50 [2]: 2.13 nM
Emax (MFI) [2]: 16600 MFI

B2: A297V4-Fc (Fc fusion)
chain: EVQLVESGGGLVQPGGSLRLSCAASGFTFSRYGMKWVRQAPGKGLEWVSTINSHGDSTYYADSVKGRFTISRDNSKNTLYLQMNSLRAEDTAVYYCLKIDYSDYSSRGQGTLVTVSSEPKSADKTHTCPPCPAPELLGGPSVFLFPPKPKDTLMISRTPEVTCVVVDVEHEDPEVKFNWYVDGVEVHNAKTKPREEQYNSTYRVVSVLTVLHQDWLNGKEYKCKVSSKAFPAPIEKTISKAKGQPREPQVYTLPPSRDELTKNQVSLTCLVKGFYPSDIAVEWESNGQPENNYKTTPPVLDSDGSFFLYSKLTVDKSRWQQGNVFSCSVMHEALHNHYTQKSLSLSPGK
FcγRIIb-mediated activation of HEK-Blue CD40L cells, EC50 [1]: 0.038 nM
FcγRIIb-mediated activation of HEK-Blue CD40L cells, Emax (relative fluorescence intensity) [1]: 13.3 relative fluorescence intensity
EC50 [2]: 2.7 nM
Emax (MFI) [2]: 8260 MFI

B3: A297V2-Fc (Fc fusion)
chain: B2 chain with E1Q, L11V, S57T, S75A, T78S, V93L, K98R, L112M
FcγRIIb-mediated activation of HEK-Blue CD40L cells, EC50 [1]: 0.005 nM
FcγRIIb-mediated activation of HEK-Blue CD40L cells, Emax (relative fluorescence intensity) [1]: 20 relative fluorescence intensity
EC50 [2]: 1.07 nM
Emax (MFI) [2]: 12800 MFI

B4: A12V2-Fc (Fc fusion)
chain: B1 chain with A97L, M112Q
FcγRIIb-mediated activation of HEK-Blue CD40L cells, EC50 [1]: 0.002 nM
FcγRIIb-mediated activation of HEK-Blue CD40L cells, Emax (relative fluorescence intensity) [1]: 18.6 relative fluorescence intensity
EC50 [2]: 0.42 nM
Emax (MFI) [2]: 16600 MFI

B5: 28H1 (antibody, V domains shown)
VH: EVQLLESGGGLVQPGGSLRLSCAASGFTFSSHAMSWVRQAPGKGLEWVSAIWASGEQYYADSVKGRFTISRDNSKNTLYLQMNSLRAEDTAVYYCAKGWLGNFDYWGQGTLVTVSS
VL: EIVLTQSPGTLSLSPGERATLSCRASQSVSRSYLAWYQQKPGQAPRLLIIGASTRATGIPDRFSGSGSGTDFTLTISRLEPEDFAVYYCQQGQVIPPTFGQGTKVEIK
notes: also called control anti-FAP antibody 28H1
EC50 [3]: 0.784 ng/mL
Kd [4]: 1.31 nM
Ratio of KD of 28H1 to KD of test antibody [4]: 1
Ratio of Kd of 28H1 to Kd of test antibody [4]: 1
koff [4]: 0.000255 s⁻¹
kon [4]: 195000 M⁻¹ s⁻¹
EC50 (read off the curve) [5]: ~1 ng/mL
